This assay has as its target ペプチド13(Aβのaa 13-21) (UniProt P05067). The experiment in a line: ELISA on biotinylated peptides (Mimotopes format). On the technique in general: In an ELISA, binding on a coated surface is turned into a signal by an enzyme label.

B1: ヒト化抗ヒトアミロイドβモノクローナル抗体hC2 (antibody, human IgG4 S228P, kappa, V domains shown)
VH: EVQLVESGGGLVQPGGSLRLSCAASGFTFSSYGMSWVRQAPGKGLELVASINSNGGSTYYPDSVKGRFTISRDNAKNSLYLQMNSLRAEDTAVYYCASGDYWGQGTTVTVSS
VL: DIVMTQSPLSLPVTPGEPASISCRSSQSLVYSNGDTYLHWYLQKPGQSPQLLIYKVSNRFSGVPDRFSGSGSGTDFTLKISRVEAEDVGVYYCSQSTHVPWTFGQGTKVEIKR
As to B1, the percent higher affinity than for whole Aβ1-42 protein is 36%.

For the origin of these results see patent publication JP2023110925A.
